Assay results published in patent publication US9605038B2, “Fusion peptide comprising dhFas-1 domain and MMP substrate and use thereof for preventing and treating rheumatoid arthritis” (Kyungpook National University Industry-Academic Cooperation …, priority 2010, dated 2017).
Substitutions are numbered along the chain they refer to. Entries after “also recorded” stand apart in the source; their conditions may differ.

What was measured:
[1] = tested on: mouse fibroblast (NIH3T3); assay: βig-h3-mediated cell adhesion test, NIH3T3; assay type: cell-based; conditions: for βig-h3-mediated cell adhesion: NIH3T3, βig-h3 5 ug/ml coat
NIH3T3 = assay: βig-h3-mediated cell migration test (transwell), NIH3T3; assay type: cell-based, mouse; conditions: 7 hours
MMP3 = MMP3 (Homo sapiens, UniProt P08254); assay: Enzymatic digestion test, MMP3; assay type: biochemical; conditions: 3 ug peptide, MMP3 10, 50, 100 ng, 37° C. 4 hours
Description: (§1) 3 ug of synthesized mdhFas-1-MMPsubstrate structure modified protein, together with MMP1 (5 ng, 10 ng and 50 ng), MMP2 (100 ng, 200 ng and 800 ng), MMP3 (10 ng, 50 ng and 100 ng), cathepsin D (5 ng, 10 ng and 50 ng), cathepsin L (100 ng, 200 ng and 800 ng), and cathepsin K (10 ng, 50 ng and 100 ng), was mixed with enzyme buffer (150 mM NaCl, 5 mM. CaCl2, 20 mM Tris-HCl pH7.5), and reacted at 37° C. for 4 hours. The resultant product was subjected to electrophoresis through 15% polyacrylamide gel, transferred to a Nitrocellulose Membrane (Schleicher & Schuell), blocked at room temperature for 1 hour with TBST solution containing 3% BSA (20 mmole/L Tris-HCl, 137 mmole//l NaCl, 0.1% Tween-20), washed TBST solution three times (each for 10 minutes), and reacted with primary antibody (anti-Histidine or anti-Bigh3) for 1 hour. The resultant product was washed with TBST solution three times (each for 10 minutes), reacted with a secondary antibody conjugated to horseradish peroxidase (HRP) for 1 hour, washed TBST solution three times (each for 10 minutes), and visualized by ECL (Amersham Biosciences, UK) so as to detect the change in the amount of mdhFas-1-MMPsubstrate-RGD structural peptide.

cathepsin K = biological target: T1, cathepsin K (Homo sapiens, UniProt P43235); assay: Enzymatic digestion test, cathepsin K; assay type: biochemical; conditions: 3 ug peptide, cathepsin K 10, 50, 100 ng, 37° C. 4 hours
T1 sequence (P43235 115-329): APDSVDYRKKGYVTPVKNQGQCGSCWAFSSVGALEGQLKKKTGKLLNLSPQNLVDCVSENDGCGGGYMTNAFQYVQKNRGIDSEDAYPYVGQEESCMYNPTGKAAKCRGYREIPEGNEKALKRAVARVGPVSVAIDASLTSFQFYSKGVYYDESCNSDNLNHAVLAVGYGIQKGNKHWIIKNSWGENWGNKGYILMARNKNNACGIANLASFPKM
Description: as §1

cathepsin L = cathepsin L (Homo sapiens, UniProt P07711); assay: Enzymatic digestion test, cathepsin L; assay type: biochemical; conditions: 3 ug peptide, cathepsin L 100, 200, 800 ng, 37° C. 4 hours
Description: as §1

[2] = tested on: collagen-induced arthritis (CIA) mouse model; assay: Arthritis therapeutic effect in CIA mouse (clinical arthritis index); assay type: in vivo
Description: A CIA mouse model having the similar characteristic to that of human rheumatoid arthritis was prepared according to the description in a known literature (Protocol for the successful induction of collagen-induced arthritis (CIA) and collagen antibody-induced arthritis (CAIA) in mice. Chondrex, Redmond, Wash.): Bovine type 2 collagen 100 ug was mixed with Freund's complete adjuvant, and hypodermically inoculated into the tail of the mouse. After 3 weeks, bovine type 2 collagen 100 ug was mixed with Freund's incomplete adjuvant, and inoculated again into the tail of the mouse. Then, the mouse was used in the experiment.
In order to find out the therapeutic effect of arthritis in a CIA model, for four weeks from the onset (the 23rd day) of arthritis following the second injection of the bovine type 2 collagen, MFK23 or MFK24 was daily injected into the abdominal cavity in doses of 0.1 mg/kg, 1 mg/kg, 10 mg/kg and 30 mg/kg. As a control group, the same amount of PBS was injected into the abdominal cavity. From the 23rd day to the 50th day, by using a Clinical arthritis index, the severity of arthritis was daily determined. The determination was based on the following data.
0; no symptom, 1; edema in one articulation or light edema, 2; severe edema in 2 or more articulations, 3; severe edema in most articulations, 4; severe edema in the whole of legs.

Chain of cathepsin L (P07711 114-333, species assumed): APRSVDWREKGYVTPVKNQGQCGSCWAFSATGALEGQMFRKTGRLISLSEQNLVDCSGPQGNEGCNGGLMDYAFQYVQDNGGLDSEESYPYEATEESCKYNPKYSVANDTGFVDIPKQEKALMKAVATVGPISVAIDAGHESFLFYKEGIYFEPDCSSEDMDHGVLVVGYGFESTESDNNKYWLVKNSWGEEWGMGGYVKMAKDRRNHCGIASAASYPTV
Chain of MMP3 (P08254 100-477, species assumed): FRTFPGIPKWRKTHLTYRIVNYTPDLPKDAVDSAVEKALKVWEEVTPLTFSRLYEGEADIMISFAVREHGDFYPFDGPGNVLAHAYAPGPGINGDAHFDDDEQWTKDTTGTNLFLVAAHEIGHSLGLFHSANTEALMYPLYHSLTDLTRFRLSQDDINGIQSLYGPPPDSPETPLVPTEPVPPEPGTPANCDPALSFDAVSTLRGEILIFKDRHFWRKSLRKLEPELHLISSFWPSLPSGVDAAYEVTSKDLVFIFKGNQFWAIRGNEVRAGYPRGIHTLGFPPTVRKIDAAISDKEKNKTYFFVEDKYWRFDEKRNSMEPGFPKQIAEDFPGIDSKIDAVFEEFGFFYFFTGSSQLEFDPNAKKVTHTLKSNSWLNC

B1: MFK23: fusion peptide having sequential links of mdhFas-1, MMP2 substrate GPLGVRG (SEQ ID NO: 5), and QERGDSLA (SEQ ID NO: 10) (protein)
chain: QAMPPEELNKLLANAKELTNILKYHIGDEILVSGGIGALVRLKSLQGDKLEVSSKNNVVSVNKEPVAETDIMEFGPLGVRGVDGQERGDSLAGLE
modifications: MFK23
For B1, which “concentration at which treatment inhibited the adhesion” value ([1]; NIH3T3, FIG. 14) is on record?
The value was at least 5 µM.

What about the βig-h3-mediated cell adhesion [1] of the same molecule?
The βig-h3-mediated cell adhesion was “even at a very low concentration can inhibit the cell adhesion; also recorded: concentration-dependently inhibited”.

What about the βig-h3-mediated cell migration (NIH3T3) of the same molecule?
The βig-h3-mediated cell migration was “inhibited the cell migration; also recorded: concentration-dependently inhibited”.

And the “cleavage through treatment with MMP-3” value (MMP3)?
The value was “not cleaved”.

And the “cleavage through treatment with cathepsin K” value (cathepsin K)?
Its value is “not cleaved”.

And the “cleavage through treatment with cathepsin L” value (cathepsin L)?
Its value is “not cleaved”.

And the “arthritis inhibiting effect (clinical arthritis index), in words” value ([2]; daily into the abdominal cavity)?
Its value is “excellent effect on arthritis”.

B2: MFK24: fusion peptide having sequential links of mdhFas-1, MMP1 substrate GPQGIAG (SEQ ID NO: 6), and QERGDSLA (SEQ ID NO: 10) (protein)
chain: B1 chain with L77Q, V79I, R80A
modifications: MFK24
With B2 as the molecule, how does the adhesion inhibiting effect ([1]; NIH3T3, concentration of 0.5uM, FIG. 15C) read?
The adhesion inhibiting effect was at least 80%.

What about the βig-h3-mediated cell adhesion [1] of the same molecule?
Its βig-h3-mediated cell adhesion is “even at a very low concentration can inhibit the cell adhesion; also recorded: concentration-dependently inhibited”.

What about the βig-h3-mediated cell migration (NIH3T3) of the same molecule?
The βig-h3-mediated cell migration was “inhibited the cell migration; also recorded: concentration-dependently inhibited”.

And the “cleavage through treatment with MMP-3” value (MMP3)?
Its value is “not cleaved”.

And the “cleavage through treatment with cathepsin K” value (cathepsin K)?
The value was “not cleaved”.

And the “cleavage through treatment with cathepsin L” value (cathepsin L)?
The value was “not cleaved”.

And the “concentration relative to conventional mdhFas-1 or MFK12 that shows a higher arthritis inhibiting effect” value [2]?
Its value is 1/100.

What about the “arthritis inhibition (clinical arthritis index)” value ([2]; 0.1 mg/kg daily into the abdominal cavity, four weeks) of the same molecule?
The value was “about 70%”.
